Data from the supplement of paper PMC10065799, “High-throughput profiling of sequence recognition by tyrosine kinases and SH2 domains using bacterial peptide display” (eLife, 2023).

Target: Hck (UniProt P08631)
Experiment: phosphorylation enrichment, bacterial display (enrichment ratio); higher = better substrate or ligand; peptides without Tyr show the background
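Also: 11-residue human phosphosite peptides and single-mutation variants displayed on the E. coli surface, counted by deep sequencing, each peptide's frequency after selection divided by its frequency in the unselected input library; frequency after pTyr selection over input frequency; kinase dosed for 20-30% of maximal phosphorylation in three min.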

Chain of Hck (P08631 whole entry, looked up): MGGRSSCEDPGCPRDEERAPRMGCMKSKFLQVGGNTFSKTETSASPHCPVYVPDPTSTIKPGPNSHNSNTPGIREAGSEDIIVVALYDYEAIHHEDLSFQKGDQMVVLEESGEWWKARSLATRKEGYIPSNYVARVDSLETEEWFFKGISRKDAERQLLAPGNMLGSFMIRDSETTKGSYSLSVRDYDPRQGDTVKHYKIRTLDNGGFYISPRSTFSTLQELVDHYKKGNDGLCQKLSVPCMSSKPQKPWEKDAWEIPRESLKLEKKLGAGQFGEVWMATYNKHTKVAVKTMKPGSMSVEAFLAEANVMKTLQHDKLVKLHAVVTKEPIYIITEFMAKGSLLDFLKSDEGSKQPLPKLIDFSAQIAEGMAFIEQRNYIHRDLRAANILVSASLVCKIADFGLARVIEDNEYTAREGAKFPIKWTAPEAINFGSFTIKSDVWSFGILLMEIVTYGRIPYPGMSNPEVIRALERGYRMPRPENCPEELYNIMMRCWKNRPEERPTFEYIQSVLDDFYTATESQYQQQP

| Sequence | phosphorylation enrichment |
| --- | --- |
| NGRTGDVLQPE [PLCG2_Y1036_Y1036D] | 0.496 |
| QLCVNYPGGFT [PROS1_Y259_YF] | 0.85 |
| DAPVVYLGSFR [PRAG1_Y132] | 0.575 |
| KTEMLYHLTAR [XRCC2_Y59] | 0.977 |
| ALTRSYIRERV [CYP2C8_Y243_K247R] | 0.493 |
| SRKSEYLLPVA [MYLK_Y611] | 0.465 |
| KRAAIYNPVIY [RHO_Y301_S297R] | 4.27 |
| ERCAQYKKDVA [ALDOA_Y138_G142V] | 0.525 |
| DSIRDYEDGME [CLNS1A_Y214] | 0.612 |
| FVIISYVLIIR [OR1D2_Y218] | 0.508 |
| RGYRVYYTPDS [PTPRF_Y450] | 1.37 |
| VGNAAYQAGPL [STK36_Y1181] | 0.378 |
| SSQVLYKLEQS [THADA_Y701] | 0.487 |
| HLTNQYMQRVA [PABPC4_Y382] | 0.324 |
| VDDQIYYFRKP [PBRM1_Y1289_E1287Q] | 8.88 |
| FLELNYKEDEF [MME_Y502_YF] | 0.552 |
| HNVPIYEGYAL [ACTA1_Y168] | 15.1 |

| Sequence | phosphorylation enrichment |
| --- | --- |
| RGNKEYEEEKR [LENG1_Y96] | 0.737 |
| RLQEGYDHSFF [ESD_Y258_YF] | 0.508 |
| ERFSFYGMKAV [SLC15A2_Y61_YF] | 0.546 |
| SFVVRYNQPRV [GRIN2D_Y736_M733V_YF] | 0.515 |
| QSGGQYSSQGL [TNNI3K_Y788_A785G] | 0.72 |
| TLQSMYGCDMG [HLA-B_Y123_V127M] | 0.609 |
| QKPLGYYRVNL [GALE_Y104_D103G] | 0.497 |
| GNLLIYTKFGK [HGD_Y166_E168K] | 1.36 |
| IINENYDFLKG [NUP98_Y1664_YF] | 1.19 |
| IKIMGYSIRTI [IDS_Y490] | 0.457 |
| LQRVQYDLQKA [DSP_Y1512] | 0.397 |
| GTYVIYVRFGG [FLNB_Y1687] | 0.597 |
| VAVTKYCKEEF [ATP7B_Y1078_L1083F] | 0.458 |
| MALDRYVASCK [OR2B11_Y127_I130S] | 0.435 |
| NEANKYQISVN [FGB_Y368] | 0.391 |
| NLDCFYQQVTK [SEC16A_Y1041_R1039C] | 1.91 |

Target: Jak2 (UniProt O60674)
Experiment: as above

Chain of Jak2 (O60674 whole entry, looked up): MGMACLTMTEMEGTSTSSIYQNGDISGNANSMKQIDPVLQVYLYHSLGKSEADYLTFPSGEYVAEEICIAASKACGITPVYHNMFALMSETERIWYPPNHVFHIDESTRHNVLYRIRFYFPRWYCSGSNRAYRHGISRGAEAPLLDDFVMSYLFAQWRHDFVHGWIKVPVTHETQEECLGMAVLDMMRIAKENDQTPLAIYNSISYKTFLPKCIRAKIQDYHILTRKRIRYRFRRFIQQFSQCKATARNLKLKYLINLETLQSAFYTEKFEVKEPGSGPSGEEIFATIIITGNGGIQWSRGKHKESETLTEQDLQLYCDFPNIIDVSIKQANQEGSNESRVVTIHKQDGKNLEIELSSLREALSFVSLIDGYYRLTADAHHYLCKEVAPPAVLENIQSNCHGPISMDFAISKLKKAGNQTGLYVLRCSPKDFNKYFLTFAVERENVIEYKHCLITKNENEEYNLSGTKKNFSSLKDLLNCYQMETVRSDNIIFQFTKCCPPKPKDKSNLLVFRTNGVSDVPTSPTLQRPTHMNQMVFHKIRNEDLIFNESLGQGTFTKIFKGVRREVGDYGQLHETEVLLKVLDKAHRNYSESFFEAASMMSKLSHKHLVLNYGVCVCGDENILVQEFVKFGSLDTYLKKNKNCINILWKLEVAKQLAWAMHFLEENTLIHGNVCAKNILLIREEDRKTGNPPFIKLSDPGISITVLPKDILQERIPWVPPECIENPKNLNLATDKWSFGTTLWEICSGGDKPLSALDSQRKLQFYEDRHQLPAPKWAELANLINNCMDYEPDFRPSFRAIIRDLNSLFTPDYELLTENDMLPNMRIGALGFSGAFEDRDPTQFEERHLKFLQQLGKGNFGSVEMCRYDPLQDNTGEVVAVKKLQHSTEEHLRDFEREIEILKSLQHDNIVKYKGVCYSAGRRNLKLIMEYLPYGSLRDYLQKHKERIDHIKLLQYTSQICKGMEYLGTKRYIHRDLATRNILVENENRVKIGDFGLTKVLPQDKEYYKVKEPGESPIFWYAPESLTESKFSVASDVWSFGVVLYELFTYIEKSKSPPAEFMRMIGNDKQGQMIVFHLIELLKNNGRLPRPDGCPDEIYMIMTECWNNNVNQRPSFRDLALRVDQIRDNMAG

| Sequence | phosphorylation enrichment |
| --- | --- |
| NGRTGDVLQPE [PLCG2_Y1036_Y1036D] | 0.903 |
| QLCVNYPGGFT [PROS1_Y259_YF] | 0.907 |
| DAPVVYLGSFR [PRAG1_Y132] | 0.73 |
| KTEMLYHLTAR [XRCC2_Y59] | 0.928 |
| ALTRSYIRERV [CYP2C8_Y243_K247R] | 0.58 |
| SRKSEYLLPVA [MYLK_Y611] | 0.509 |
| KRAAIYNPVIY [RHO_Y301_S297R] | 0.424 |
| ERCAQYKKDVA [ALDOA_Y138_G142V] | 0.65 |
| DSIRDYEDGME [CLNS1A_Y214] | 1.66 |
| FVIISYVLIIR [OR1D2_Y218] | 0.503 |
| RGYRVYYTPDS [PTPRF_Y450] | 1.93 |
| VGNAAYQAGPL [STK36_Y1181] | 0.592 |
| SSQVLYKLEQS [THADA_Y701] | 0.731 |
| HLTNQYMQRVA [PABPC4_Y382] | 0.406 |
| VDDQIYYFRKP [PBRM1_Y1289_E1287Q] | 2.07 |
| FLELNYKEDEF [MME_Y502_YF] | 0.848 |
| HNVPIYEGYAL [ACTA1_Y168] | 1.06 |

| Sequence | phosphorylation enrichment |
| --- | --- |
| RGNKEYEEEKR [LENG1_Y96] | 0.822 |
| RLQEGYDHSFF [ESD_Y258_YF] | 0.85 |
| ERFSFYGMKAV [SLC15A2_Y61_YF] | 1.02 |
| SFVVRYNQPRV [GRIN2D_Y736_M733V_YF] | 0.794 |
| QSGGQYSSQGL [TNNI3K_Y788_A785G] | 0.835 |
| TLQSMYGCDMG [HLA-B_Y123_V127M] | 1.2 |
| QKPLGYYRVNL [GALE_Y104_D103G] | 2.37 |
| GNLLIYTKFGK [HGD_Y166_E168K] | 1.26 |
| IINENYDFLKG [NUP98_Y1664_YF] | 0.761 |
| IKIMGYSIRTI [IDS_Y490] | 0.862 |
| LQRVQYDLQKA [DSP_Y1512] | 0.642 |
| GTYVIYVRFGG [FLNB_Y1687] | 1.04 |
| VAVTKYCKEEF [ATP7B_Y1078_L1083F] | 0.959 |
| MALDRYVASCK [OR2B11_Y127_I130S] | 0.667 |
| NEANKYQISVN [FGB_Y368] | 0.654 |
| NLDCFYQQVTK [SEC16A_Y1041_R1039C] | 1.15 |

Target: MERTK (UniProt Q12866)
Experiment: as above

Chain of MERTK (Q12866 whole entry, looked up): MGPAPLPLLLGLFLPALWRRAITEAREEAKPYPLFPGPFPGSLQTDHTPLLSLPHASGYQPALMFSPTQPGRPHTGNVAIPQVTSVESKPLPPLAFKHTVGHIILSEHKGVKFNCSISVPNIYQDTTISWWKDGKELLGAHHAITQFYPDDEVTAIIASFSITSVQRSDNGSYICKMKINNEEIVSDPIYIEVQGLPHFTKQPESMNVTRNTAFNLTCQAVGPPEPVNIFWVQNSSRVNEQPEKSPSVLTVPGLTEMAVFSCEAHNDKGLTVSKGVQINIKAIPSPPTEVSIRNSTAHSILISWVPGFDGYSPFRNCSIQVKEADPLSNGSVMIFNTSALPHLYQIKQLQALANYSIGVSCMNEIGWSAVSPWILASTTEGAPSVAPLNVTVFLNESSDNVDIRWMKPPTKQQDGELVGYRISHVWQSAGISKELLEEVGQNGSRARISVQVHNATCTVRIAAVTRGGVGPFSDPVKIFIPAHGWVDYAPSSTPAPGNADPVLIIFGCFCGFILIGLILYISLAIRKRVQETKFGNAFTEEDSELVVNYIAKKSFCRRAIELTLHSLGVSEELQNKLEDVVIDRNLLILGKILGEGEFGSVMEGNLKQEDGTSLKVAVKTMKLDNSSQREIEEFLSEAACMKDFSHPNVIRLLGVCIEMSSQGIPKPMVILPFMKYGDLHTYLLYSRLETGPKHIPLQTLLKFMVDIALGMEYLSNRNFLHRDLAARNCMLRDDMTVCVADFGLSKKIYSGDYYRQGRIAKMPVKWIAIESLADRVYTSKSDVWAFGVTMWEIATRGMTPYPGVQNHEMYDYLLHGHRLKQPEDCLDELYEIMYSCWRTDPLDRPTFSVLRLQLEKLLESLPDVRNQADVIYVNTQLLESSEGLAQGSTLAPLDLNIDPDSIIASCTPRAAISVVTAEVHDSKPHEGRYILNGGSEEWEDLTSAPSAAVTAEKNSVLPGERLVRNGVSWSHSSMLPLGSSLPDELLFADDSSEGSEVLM

| Sequence | phosphorylation enrichment |
| --- | --- |
| NGRTGDVLQPE [PLCG2_Y1036_Y1036D] | 0.454 |
| QLCVNYPGGFT [PROS1_Y259_YF] | 0.552 |
| DAPVVYLGSFR [PRAG1_Y132] | 0.476 |
| KTEMLYHLTAR [XRCC2_Y59] | 2.06 |
| ALTRSYIRERV [CYP2C8_Y243_K247R] | 0.391 |
| SRKSEYLLPVA [MYLK_Y611] | 0.413 |
| KRAAIYNPVIY [RHO_Y301_S297R] | 1.06 |
| ERCAQYKKDVA [ALDOA_Y138_G142V] | 0.385 |
| DSIRDYEDGME [CLNS1A_Y214] | 0.599 |
| FVIISYVLIIR [OR1D2_Y218] | 0.527 |
| RGYRVYYTPDS [PTPRF_Y450] | 3.59 |
| VGNAAYQAGPL [STK36_Y1181] | 0.386 |
| SSQVLYKLEQS [THADA_Y701] | 0.442 |
| HLTNQYMQRVA [PABPC4_Y382] | 0.277 |
| VDDQIYYFRKP [PBRM1_Y1289_E1287Q] | 5.41 |
| FLELNYKEDEF [MME_Y502_YF] | 0.344 |
| HNVPIYEGYAL [ACTA1_Y168] | 13.1 |

| Sequence | phosphorylation enrichment |
| --- | --- |
| RGNKEYEEEKR [LENG1_Y96] | 0.314 |
| RLQEGYDHSFF [ESD_Y258_YF] | 0.538 |
| ERFSFYGMKAV [SLC15A2_Y61_YF] | 0.383 |
| SFVVRYNQPRV [GRIN2D_Y736_M733V_YF] | 0.366 |
| QSGGQYSSQGL [TNNI3K_Y788_A785G] | 0.4 |
| TLQSMYGCDMG [HLA-B_Y123_V127M] | 0.63 |
| QKPLGYYRVNL [GALE_Y104_D103G] | 0.516 |
| GNLLIYTKFGK [HGD_Y166_E168K] | 0.991 |
| IINENYDFLKG [NUP98_Y1664_YF] | 0.602 |
| IKIMGYSIRTI [IDS_Y490] | 0.455 |
| LQRVQYDLQKA [DSP_Y1512] | 0.646 |
| GTYVIYVRFGG [FLNB_Y1687] | 0.498 |
| VAVTKYCKEEF [ATP7B_Y1078_L1083F] | 0.357 |
| MALDRYVASCK [OR2B11_Y127_I130S] | 0.385 |
| NEANKYQISVN [FGB_Y368] | 0.371 |
| NLDCFYQQVTK [SEC16A_Y1041_R1039C] | 0.856 |

Test system: c-Abl (mouse)
Experiment: as above

| Sequence | phosphorylation enrichment |
| --- | --- |
| NGRTGDVLQPE [PLCG2_Y1036_Y1036D] | 0.777 |
| QLCVNYPGGFT [PROS1_Y259_YF] | 0.835 |
| DAPVVYLGSFR [PRAG1_Y132] | 0.743 |
| KTEMLYHLTAR [XRCC2_Y59] | 0.897 |
| ALTRSYIRERV [CYP2C8_Y243_K247R] | 0.458 |
| SRKSEYLLPVA [MYLK_Y611] | 0.93 |
| KRAAIYNPVIY [RHO_Y301_S297R] | 0.469 |
| ERCAQYKKDVA [ALDOA_Y138_G142V] | 0.624 |
| DSIRDYEDGME [CLNS1A_Y214] | 0.844 |
| FVIISYVLIIR [OR1D2_Y218] | 0.457 |
| RGYRVYYTPDS [PTPRF_Y450] | 1.3 |
| VGNAAYQAGPL [STK36_Y1181] | 0.531 |
| SSQVLYKLEQS [THADA_Y701] | 0.496 |
| HLTNQYMQRVA [PABPC4_Y382] | 1.04 |
| VDDQIYYFRKP [PBRM1_Y1289_E1287Q] | 12.8 |
| FLELNYKEDEF [MME_Y502_YF] | 0.589 |
| HNVPIYEGYAL [ACTA1_Y168] | 13.2 |

| Sequence | phosphorylation enrichment |
| --- | --- |
| RGNKEYEEEKR [LENG1_Y96] | 0.458 |
| RLQEGYDHSFF [ESD_Y258_YF] | 0.728 |
| ERFSFYGMKAV [SLC15A2_Y61_YF] | 0.812 |
| SFVVRYNQPRV [GRIN2D_Y736_M733V_YF] | 0.663 |
| QSGGQYSSQGL [TNNI3K_Y788_A785G] | 0.676 |
| TLQSMYGCDMG [HLA-B_Y123_V127M] | 1.15 |
| QKPLGYYRVNL [GALE_Y104_D103G] | 0.455 |
| GNLLIYTKFGK [HGD_Y166_E168K] | 1.5 |
| IINENYDFLKG [NUP98_Y1664_YF] | 0.57 |
| IKIMGYSIRTI [IDS_Y490] | 0.822 |
| LQRVQYDLQKA [DSP_Y1512] | 0.496 |
| GTYVIYVRFGG [FLNB_Y1687] | 0.868 |
| VAVTKYCKEEF [ATP7B_Y1078_L1083F] | 0.707 |
| MALDRYVASCK [OR2B11_Y127_I130S] | 0.592 |
| NEANKYQISVN [FGB_Y368] | 0.592 |
| NLDCFYQQVTK [SEC16A_Y1041_R1039C] | 0.831 |
